Three molecules from publication PMC3526519, “Rationally re-designed mutation of NAD-independent L-lactate dehydrogenase: high optical resolution of racemic mandelic acid by the engineered Escherichia coli” (Microbial Cell Factories, 2012) can be followed below.

Data set [1] concerns the target T1, L-iLDH (NAD-independent L-lactate dehydrogenase) (Stutzerimonas stutzeri, UniProt I1SLB1, V108A).
T1 construct: gene lldD; membrane flavoprotein; wild-type prepared as in earlier report
T1 sequence (I1SLB1 1-391 V108A): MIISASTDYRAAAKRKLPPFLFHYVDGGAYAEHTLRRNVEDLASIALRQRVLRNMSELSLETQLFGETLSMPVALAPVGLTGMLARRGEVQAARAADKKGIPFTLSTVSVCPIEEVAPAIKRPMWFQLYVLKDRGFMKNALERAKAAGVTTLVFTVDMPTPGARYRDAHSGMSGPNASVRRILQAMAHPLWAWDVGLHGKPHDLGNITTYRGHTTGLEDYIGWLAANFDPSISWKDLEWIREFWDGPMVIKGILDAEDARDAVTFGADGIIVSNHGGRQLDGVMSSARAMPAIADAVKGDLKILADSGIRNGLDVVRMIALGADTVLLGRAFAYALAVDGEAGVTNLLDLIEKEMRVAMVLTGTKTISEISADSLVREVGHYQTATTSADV
Kind of data set: DCIP reduction at […] nm, double-reciprocal plots. It counts as biochemical. The following applies: competitive versus L-mandelate; 0.0625 mM DCIP, 50 mM Tris-HCl pH 7.5, 30 °C.

Another data set deals with T2, C[C@H](O)C(=O)O.
T2 construct: membrane flavoprotein; wild-type prepared as in earlier report
As to the kind of experiment: purified protein. It counts as biochemical, Stutzerimonas stutzeri. The following applies: 0.0625 mM DCIP as electron acceptor, 50 mM Tris-HCl pH 7.5, 30 °C.

For a further data set, the system named is T3, O=C(O)[C@@H](O)c1ccccc1.
T3 construct: membrane flavoprotein; wild-type prepared as in earlier report
As to the kind of experiment: purified protein. It counts as biochemical, Stutzerimonas stutzeri. The following applies: 0.0625 mM DCIP as electron acceptor, 50 mM Tris-HCl pH 7.5, 30 °C.

Substrate in data set [2]: C[C@H](O)C(=O)O
Kind of data set: purified protein. It counts as biochemical, Stutzerimonas stutzeri. The settings on record: 0.0625 mM DCIP as electron acceptor, 50 mM Tris-HCl pH 7.5, 30 °C.

Substrate in data set [3]: O=C(O)[C@@H](O)c1ccccc1
As to the kind of experiment: purified protein. It counts as biochemical, Stutzerimonas stutzeri. The following applies: 0.0625 mM DCIP as electron acceptor, 50 mM Tris-HCl pH 7.5, 30 °C.

In general, Ki refers to the dissociation constant of the complex between target and ligand, obtained from inhibition or displacement. The low end stands for higher affinity, the high end for lower affinity. Take `O=C(O)[C@H](O)c1ccccc1` [D-mandelate]: affinity in data set [1] was put at a Ki of 5.5 ± 0.5 mM.

In general, Km refers to the concentration of substrate that gives half-maximal velocity. The kcat is the number of substrate molecules converted per active site and unit of time at saturation. One may read the kcat/Km as the second-order rate constant that governs catalysis at low substrate concentration. On to “L-iLDH (NAD-independent L-lactate dehydrogenase) (Stutzerimonas stutzeri; V108A)”, for which, in the data set on C[C@H](O)C(=O)O, the Michaelis-Menten constant (Km) is 800 ± 100 µM, the kcat came to 185 ± 36 s⁻¹ and the kcat/Km was determined as 231000 M⁻¹ s⁻¹. In the data set on O=C(O)[C@@H](O)c1ccccc1, the Michaelis constant (Km) was 1600 ± 100 µM, the turnover number (kcat) amounted to 97 ± 13 s⁻¹ and the kcat/Km worked out at 61000 M⁻¹ s⁻¹.

B1: L-iLDH (NAD-independent L-lactate dehydrogenase) (Stutzerimonas stutzeri) (protein)
chain: T1 sequence (I1SLB1 1-391 V108A)
notes: membrane flavoprotein; wild-type prepared as in earlier report
Consider B1, for which, in the data set “purified protein [2]”, the Km was 180 ± 10 µM, the catalytic constant (kcat) was 445 ± 44 s⁻¹ and the catalytic efficiency (kcat/Km) came to 2.47e+06 M⁻¹ s⁻¹. Moreover, in the data set “purified protein [3]”, the Michaelis-Menten constant (Km) was found to be 6800 ± 1000 µM, the kcat worked out at 8.3 ± 1.3 s⁻¹ and the kcat/Km came to 1200 M⁻¹ s⁻¹.
